The experiment deals with T1, human Complement Factor D (CFD), purified from human serum (human, UniProt P00746 26-253).
T1 construct: serum purified (CompTech A136); also called serum purified CFD; hCFD-Comptech
The experiment can be described thus: SPR MX96, mAbs amine-coupled, CFD injected.

Substitutions are numbered along the chain they refer to.

T1 sequence (P00746 26-253): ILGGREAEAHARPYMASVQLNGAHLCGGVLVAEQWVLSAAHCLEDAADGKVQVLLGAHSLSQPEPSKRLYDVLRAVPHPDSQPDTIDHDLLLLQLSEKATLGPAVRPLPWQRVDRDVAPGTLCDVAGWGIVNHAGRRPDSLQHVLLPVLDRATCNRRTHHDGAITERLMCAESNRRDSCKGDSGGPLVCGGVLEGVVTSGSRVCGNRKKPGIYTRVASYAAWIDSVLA

B1: KCD132 (antibody, V domains shown)
VH: QVQLQQSGPELVKPGASVKISCKASGYSFTDYYINWVKQRPGQGLEWIGWIFPGSGSTYYNEKFKGKATLTVDKSSSTAYMLLSSLTSEDSAVYFCARTGYYSNLYAVDYWGQGTSVTVSS
VL: DIQMTQSPASLSVSVGETVTITCRASENIYSNLAWYQQKQGKSPQLLVYVATNLADGVPSRFSGSGSGTQYSLKINSLQSEDFGNYYCQHFWGTPYTFGGGTKLEMR
The term Kd denotes the free concentration of one partner at which half of the binding sites on the other are occupied at equilibrium, for simple one-to-one binding. A low value points to a tighter complex. As for B1, the Kd stood at 2.61 nM.

B2: KCD133 (antibody, V domains shown)
VH: EVQLVESGGGLLQPKGSLKLSCAASGFTFNTYAMNWVRQAPGKGLEWVARIRSKSSNYATYYADSVKDRFTISRDDSQSMFYLEMNNLKTEDTAMYYCVRDRGYYYVMDYWGQGTSVTVSS
VL: DIVLTQSPASLAVSLGQRATISCRASESVEYYGTSLMQWYQQKPGQPPKLLINAASNVESGVPARFSGSGSGTDFSLNIHPVEEDDIAMYFCQQSRKVPWTFGGGTKLEIK
B2: the Kd stood at 11.5 nM.

B3: KCD019 (antibody, V domains shown)
VH: QVQLQQSGAELARPGASVKMSCKASGYTFATYTIHWVKQRPGQGLEWIGYLNLRNDYTHYNQKFRDKAALTADKSSSTAYMQLSSLTSEDSAVYNCAFRLGNDRQGWYFDVWGAGTTVTVSS
VL: DIVMTQAHRFMSTSVGDRVIISCKASQDVGTAVAWYQQTPGQSPKILIYWTSTRHTGVPDRFTGSRSGTDFTLTISNVQSEDLADYFCQQYTTYPLTFGGGTKLEIK
On to B3, for which the Kd was 7.24 nM.

B4: KCD014 (antibody, V domains shown)
VH: EVKLVESGGGLVQPGGSLKLSCAASGFTFSSYIMSWVRQTPEKRLEWVAYITNGGGNTYYPDTIKGRFTISRDNAKNTLYLQMSSLKSEDTAMYYCARHGTGYAMDYWGQGTSVTVSS
VL: EIVLTQSPTTMAASPGEKITITCSASSSISSNYLHWYQQKPGFSPKLLIYRTSNLASGVPARFSGSGSGTSYSLTIGTMEAEDVATYYCQQGSSIPLTFGAGTKLELK
As for B4, the dissociation constant Kd stood at 21.8 nM.

B5: KCD050 (antibody, V domains shown)
VH: QVQLKESGPGLVAPSQSLSITCTVSGFSLNSYGVQWVRQPPGQGLEWLVVIWRDGTITYNSALKSRLSINKDNSKSQVFLKMNSLQTDDTAMYYCGRTSHYGNFNYYVMDYWGQGTAVTVSS
VL: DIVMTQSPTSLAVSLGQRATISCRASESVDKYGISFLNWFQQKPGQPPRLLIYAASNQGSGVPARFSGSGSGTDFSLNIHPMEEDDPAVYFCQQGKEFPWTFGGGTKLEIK
B5 gave a Kd of 1.96 nM.

B6: KCD052 (antibody, V domains shown)
VH: B5 VH with V49G, T56S, N70R, F104Y
VL: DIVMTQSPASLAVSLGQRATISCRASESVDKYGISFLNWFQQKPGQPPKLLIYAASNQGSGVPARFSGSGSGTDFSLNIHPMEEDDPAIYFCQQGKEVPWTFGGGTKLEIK
As to B6, binding was characterised by a dissociation constant (Kd) of 3.07 nM.

B7: KCD230 (antibody, V domains shown)
VH: QVQLQQPGTELVKPGASVKLPCKASGYTFTSYWMQWVKQRPGQGLEWIGEIDPSDTYINYNQKFKGKATLTVDTSSTTAYMQLSSLTSEDSAVYYCARYTTIMASDYWGQGTTLTVSS
VL: DIQMTQTTSSLSVSLGDRVTISCRASQDITNYLNWYQQKPDGTVKLLIYFTSRLHSGVPSRFSGSGSGTDYSLTISNLEPEDIATYYCQQYSKLPWTFGGGTKLEIK
For B7, the Kd was determined as 2.48 nM.

B8: KCD122 (antibody, V domains shown)
VH: EVQLQQSGPELVKPGASVKISCKASGYTFTDYYKNWMRQRHGESLEWIGDINPNNGDANYNQKFKGKATLTVDKSSSTAYMELRSLTSEDSAVYFCAREGPSFAYWGHGTLVTVSA
VL: DVLMTQTPLSLPVSLGDQASISCRSSQTIVHSNGDTYLEWYLQKPGQSPNLLIYKVSNRFSGVPDRFSGSGSGTDFTLKISRVEAEDLGVYYCFQGSHVPPTFGGGTKLEIK
On to B8, for which the Kd came to 1.44 nM.

B9: KCD123 (antibody, V domains shown)
VH: B8 VH with Q3H, Y32F, D57G, A58T, F95Y, H108Q
VL: B8 VL
B9 returned an equilibrium dissociation constant (Kd) of 2.77 nM.

B10: KCD118 (antibody, V domains shown)
VH: B8 VH with S25F, N55S, F95Y
VL: B8 VL with V90I
On to B10, for which binding was characterised by a dissociation constant (Kd) of 0.757 nM.

B11: KCD121 (antibody, V domains shown)
VH: B8 VH with A58T, N59S, K65R, Y80F, F95Y, H108Q
VL: B8 VL with S26N, K79R
B11 returned an equilibrium dissociation constant (Kd) of 1.8 nM.

B12: KCD003 (antibody, V domains shown)
VH: EVQLQQSRPELVKPGASVKIFCKASGYTFTDYYMNWMRQRHGETLEWIGDINPNNGDPSYNQKFKDKATLTVDKSSSTASMELRSLTSDDSAVYYCAREGPSFAYWGQGTLVTVSA
VL: B8 VL with D17E
Molecule B12 returned a Kd of 1.05 nM.

B13: KCD128 (antibody, V domains shown)
VH: QVQLQQPGAELVRPESSVKLSCKASGYTFTSYWMDWVMQRPGQGLEWIGNIYPSGSETHYNQKFKDKATLTVDKSSTTAYMQLSSLTFEDSAVYYCARSGFIGSRYLYYFDYWGQGTTLTVSS
VL: DIVMTQSHKFMSTSVGDRVTITCKASQDVSNAVAWYQLKPGQSPKLLIYSASYRYTGVPDRFTGSGSGTDFTFTISSVQAADLAVYYCQQHYITPYTFGGGTKLEIK
Molecule B13 yielded a dissociation constant Kd of 14 nM.

B14: KCD038 (antibody, V domains shown)
VH: EVQLQQSGPELVKPGTSMKISCKASGYSFADYTMNWVKQSHGKSLEWIGLINPYNGGTSYNQKFMGKATLTVDKSSSTAYMELLSLTSEDSAVYYCARWGTYSHNYDYAMDYWGQGTSVTVSS
VL: DVVMTQTPLSLPVSLGDQASISCRSSQSLVHSNGNTYLYWYFQKPGQSPKFLIYKVSNRFSGISDRFSGSGSGTDFTLKISRVEAEDLGVYFCSQSTHVPPFTFGSGTKLEIK
B14: binding was put at a Kd of 37.2 nM.

B15: KCD039 (antibody, V domains shown)
VH: B14 VH with L11M, T16A, M34L, A97T
VL: B14 VL with P12S, F42L, F51L, S64T
Regarding B15, the Kd worked out at 52.5 nM.

B16: KCD220 (antibody, V domains shown)
VH: QVQLQQSGAELMEPGASVKLSCKATGYTFTGYWIEWVKQRPGHGLEWIGETLPGSDSNNYNEKFKGKATFTADTSSNTAYMQLSSLTTEDSAIYYCARDYSNYWYFDVWGTGTTVTVSS
VL: DIQMTQTTSSLSASLGDRVTISCRASQDISNYLNWYQQKPDGTVKLLIYYTSNLHSGVPSRFSGSGSGTDYSLTISNLEQEDIATYFCQQDSKHRTFGGGTKLEIK
The molecule B16 showed a Kd of 0.0535 nM.

B17: KCD137 (antibody, V domains shown)
VH: EVQLVESGGDLVKPGGSLKLSCAASGFTFSGYGMSWVRQIPDKRLEWVAISSRDNSFTYYPDSVKGRFTISRDNAKNTLYLQMSSLKSEDTALYFCTRHPYLPTGGYVMDYWGQGTSVTVSS
VL: DIVMTQSHKFMSTSVGDRVSITCKASQDVGTAVAWYQQRPGQSPKLLIYWASTRHTGVPDRFTGSGSGTDFTLTVSNVQSEDLADYFCQQYTSYPLTFGAGTKLELK
B17 displayed a Kd of 0.504 nM.

B18: KCD017 (antibody, V domains shown)
VH: DVQLQESGPDLVKPSQSLSLTCTVTDYSITSGYSWHWIRQFPGNKLEWLGYIHSSGNTNYNPSLKSRFSITRDTSKNQFFLQLNSVTSEDTATYYCALHYYGSSFGWYFDVWGAGTTVTVSS
VL: B17 VL with S20Y, R39T, P40S, V75L
For B18, the Kd is 7.85 nM.

B19: KCD070 (antibody, V domains shown)
VH: EIQLQQTGPELVKPGASVKISCKASGYSFTDYIILWVKQSHGKSLEWIGNINPYYDYTSYNLKFKGKATLTVDKSSSTAYMQLNSLTSEDSAVYYCARSDGYYGGDYWGQGTSVTVSS
VL: B17 VL with R39K, V75I, S76N, T92S, L96W, A100G, K103T, L106I
For the molecule B19, the dissociation constant (Kd) came to 3.83 nM.

B20: KCD002 (antibody, V domains shown)
VH: EVKLVESEGGLVQPGSSMKLSCTASGFTFSDYYMAWVRQVPEKGLEWVGNINYDGSSTYYLDSLKSRFIISRDSAKNILYLQMSSLKSEDTATYFCARGEDFYLYAMDYWGQGTSVTVSS
VL: DIQMTQSPASLSASVGETVTITCRASENIHSYLAWYQQKQGKSPQLIVYNTKTLAEGVPSRFSGSGSGTQFSLKINSLQPEDFGSYYCQHHYGIPPTFGGGTKLEIK
Regarding B20, the dissociation constant (Kd) is 0.132 nM.

B21: KCD214 (antibody, V domains shown)
VH: EVQLQQSVAEFVRPGASVKLSCTASGFNIKNTYMHWVKQRPEQGLEWIGRIDPANGNTEYAPKFQGKATITADTSSNTAYLQLSSLTSEDTAIYYCALYDYDGYWGQGTTLTVSS
VL: EIVLTQSPALMAASPGEKVTITCRVSSSISSSSLHWYQQKSGTSPKPWIYGTSNLASGVPVRFSGSRSGTSYSLTISSMEAEDAATYYCQQWSDYPWTFGGGTKLEIK
As for B21, the dissociation constant Kd is 1.56 nM.

B22: KCD208 (antibody, V domains shown)
VH: B21 VH with F11L, A24V, N57D, E59T, T78S, Q82H, S85R, A97S
VL: B21 VL with R24S, Q38R, N54H, R67G, S93D, D94T
B22 showed a Kd of 2.55 nM.

B23: KCD101 (antibody, V domains shown)
VH: QVQLQQPGAELVRPGTSVKLSCKASGYTFTSYWMHWVKQRPGQGLEWIGVIDPSDSYTNYNQKFKGKATLTVDTSSSTAYMQLSSLTSEDSAVYYCGRNGYDGSMDYWGQGTSVTVSS
VL: DIQMTQTTSSLSASLGDRVTISCRASQDISNYLNWYQQKPDGTVKLLIYYPSRLHSGVPSRFSGSGSGTDYSLTISNLEQEDFATYFCQQGNTLPYTFGGGTKLEIK
The molecule B23 registered a Kd of 3.78 nM.

B24: KCD104 (antibody, V domains shown)
VH: B23 VH with N59Y, G97A, S104A
VL: B23 VL with D1E
Regarding B24, the dissociation constant (Kd) was 1.58 nM.

B25: KCD103 (antibody, V domains shown)
VH: B23 VH with N59K, G66D, D73E, G97A, R98G
VL: B23 VL with Y32S, P51T, G57R, E79D, F83I, G91A
B25 registered a Kd of 4.37 nM.
